The target in assay [1] is T1, recombinant mf IL1RAP aa21-367 (cynomolgus monkey (Macaca fascicularis), UniProt A0A2K5X5J5 21-367).
T1 construct: also called cynomolgus monkey IL1RAP; cyno IL1RAP
T1 sequence: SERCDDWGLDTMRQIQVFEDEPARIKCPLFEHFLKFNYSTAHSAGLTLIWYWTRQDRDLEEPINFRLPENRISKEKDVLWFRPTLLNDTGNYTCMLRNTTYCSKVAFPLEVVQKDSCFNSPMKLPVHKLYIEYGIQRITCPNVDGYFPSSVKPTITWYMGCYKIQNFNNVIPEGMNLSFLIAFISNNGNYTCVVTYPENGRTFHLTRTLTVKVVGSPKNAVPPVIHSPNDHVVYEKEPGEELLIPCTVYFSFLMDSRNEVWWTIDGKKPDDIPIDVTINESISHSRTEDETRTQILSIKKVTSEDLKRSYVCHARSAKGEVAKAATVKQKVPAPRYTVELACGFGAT
The experiment in a line: binding ELISA, coated recombinant mf IL1RAP aa21-367. (In general: ELISA stands for enzyme-linked immunosorbent assay.)

Assay [2] concerns the target T2, recombinant hIL1RAP Domain1+2+3 (aa21-367) (human, UniProt Q9NPH3 21-367).
T2 construct: Numbering on Uniprot Q9NPH3
T2 sequence (looked up): T1 sequence with F183L, P273T, T326K
The experiment in a line: binding ELISA, coated recombinant hIL1RAP aa21-367.

Assay [3] concerns the target T3, human IL1RAP on the cell surface (human, UniProt Q9NPH3 21-570).
T3 sequence (looked up): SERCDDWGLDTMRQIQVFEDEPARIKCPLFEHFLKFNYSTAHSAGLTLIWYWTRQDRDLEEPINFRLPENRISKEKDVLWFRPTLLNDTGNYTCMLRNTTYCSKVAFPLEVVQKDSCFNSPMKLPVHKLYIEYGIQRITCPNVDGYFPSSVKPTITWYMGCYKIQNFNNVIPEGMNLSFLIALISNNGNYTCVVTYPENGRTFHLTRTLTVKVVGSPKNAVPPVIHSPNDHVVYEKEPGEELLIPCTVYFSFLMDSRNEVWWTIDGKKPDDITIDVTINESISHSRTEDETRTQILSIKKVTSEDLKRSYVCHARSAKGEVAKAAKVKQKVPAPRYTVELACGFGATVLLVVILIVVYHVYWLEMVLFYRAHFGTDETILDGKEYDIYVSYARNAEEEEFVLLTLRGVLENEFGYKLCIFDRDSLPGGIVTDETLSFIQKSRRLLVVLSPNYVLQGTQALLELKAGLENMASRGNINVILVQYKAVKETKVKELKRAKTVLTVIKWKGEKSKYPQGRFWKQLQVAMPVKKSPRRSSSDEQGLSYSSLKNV
The assay is described as follows: cell-based or functional assay.

The target in assay [4] is T2, recombinant hIL1RAP Domain1+2+3 …. The experiment in a line: bio-layer interferometry, human IL1RAP. On the procedure: Affinity measurements were done on BLItz™ Label-Free Protein Analysis System from ForteBio, using the Basic Kinetics module in the BLItz Pro 1.3.1.3 software from Molecular Devices. Protein A biosensors were hydrated in blocking buffer (PBS, 0.5% BSA, 0.05% Tween 20, pH 7.4) for minimum 10 min at room temperature before coating. Protein A biosensors were coated with antibodies by dipping the biosensors in 200 μl of antibody solution (10 μg/ml in blocking buffer) for 30 min at room temperature. The sensors were then incubated in 200 μl blocking buffer for at least 10 min before use. […] The baseline was made in blocking buffer with a duration time of 30 sec. Association was made for 120 sec in hIL1RAP followed by 120 sec dissociation in blocking buffer.
The antibodies were characterized for A) binding (ELISA analysis, human and cynomolgus monkey IL1RAP), B) inhibition of cytokine signaling (HEK-Blue™ assay), C) affinity (Bio-layer interferometry), D) size heterogeneity (SE-HPLC) and E) yield (concentration, A280). […] SE-HPLC was performed using standard procedures and PBS as running buffer. Affinity and cytokine inhibition were measured as previously described in Example 10. All 25 humanized clones were analyzed for blocking activity on IL-1α, IL-1β and IL-33 signaling while only the clones that had retained the inhibitory activity similar to chimeric 48D2 were analyzed for IL-36 inhibition.
KD values for affinity towards human IL1RAP are shown in Table 11 for the humanized 48D2 variants. Affinity was measured using bio-layer interferometry. […] See also Table 4 for a direct comparison of chimeric 48D2, humanized 48D2 variant VH5:VL4, and a humanized and de-immunized 48D2 variant VH5.GL:VL4.
(In general: Biolayer interferometry detects binding as a change in optical thickness at a sensor tip.)

Substitutions are numbered along the chain they refer to.

B1: h48D2 VH5:VL5 (antibody, human IgG1, kappa, L234A L235A)
heavy: not shown
light: APVLTQSPATLEASVGDRVTITCQASESISTALAWYQQKPGQPPKLLIYKASTLPSGVPSRFSGSGSGTEFTLTISDLESDDAATYYCQQGFSSGNVHNAFGGGTEVVVKRTVAAPSVFIFPPSDEQLKSGTASVVCLLNNFYPREAKVQWKVDNALQSGNSQESVTEQDSKDSTYSLSSTLTLSKADYEKHKVYACEVTHQGLSSPVTKSFNRGEC
notes: Humanized; also called VL5:VH5
For orientation: IC50 means the midpoint of a concentration-inhibition curve. As usually defined, the Kd is the equilibrium constant for the complex coming apart. Take B1: in assay [1], the IC50 is 0.0313 µg/mL. Further, the IC50 in assay [2] came out at 0.0276 µg/mL. In assay [3], the “IC50 of IL-1α signaling (HEK-Blue assay)” value is 6.3 nM, the “IC50 of IL-33 signaling (HEK-Blue assay)” value came to 1.23 nM, the “IC50 of IL-36β signaling (HEK-Blue assay)” value is 11.1 nM and the “IC50 of IL-36γ signaling (HEK-Blue assay)” value (from here on “IC50 of IL-36γ signaling”) is 0.192 nM. Moreover, the Kd in assay [4] amounted to 1.68 nM.

B2: h48D2 VH5:VL1 (antibody, human IgG1, kappa, L234A L235A, V domains shown)
VH: QEQLEESGGGLVKPGGTLSLTCTVSGPSLSHFDITWIRQAPGSGLEWIGTISPGVSTYYASWAKSRVTISVDTSLNTVSLKLSSVTAADTATYFCARGGVGSSWKAFDLWGPGTLVTISS
VL: DIVMTQSPSSLSASVGDRVTITCQASESISTALAWYQQKPGKAPKLLIYKASTLPSGVPSRFSGSGSGTDFTLTISSLQPEDFATYYCQQGFSSGNVHNAFGGGTKVVIKR
notes: Humanized; also called VL1:VH5
Take B2: the half-inhibitory concentration (IC50) in assay [1] was 0.0261 µg/mL. Besides, the 50% inhibitory concentration (IC50) in assay [2] is 0.0248 µg/mL. In assay [3], the “IC50 of IL-1α signaling (HEK-Blue assay)” value turned out to be 2.14 nM, the “IC50 of IL-33 signaling (HEK-Blue assay)” value worked out at 3.14 nM, the “IC50 of IL-36α signaling (HEK-Blue assay)” value was 0.286 nM and the “IC50 of IL-36γ signaling” value is 3.1 nM. The dissociation constant Kd in assay [4] worked out at 2.75 nM.

B3: h48D2 VH1:VL1 (antibody, human IgG1, kappa, L234A L235A, V domains shown)
VH: EVQLEESGGGLVKPGGSLRLSCAASGPSLSHFDITWVRQAPGKGLEWVSTISPGVSTYYASWAKSRFTISRDNSKNTLYLQMNSLRAEDTAVYYCARGGVGSSWKAFDLWGRGTLVTVSS
VL: B2 VL
notes: Humanized; also called VL1:VH1
B3: the half-inhibitory concentration (IC50) in assay [1] is 0.0226 µg/mL. For the same molecule, in assay [2], the half-maximal inhibitory concentration (IC50) was determined as 0.0181 µg/mL. Also, in assay [3], the “IC50 of IL-1α signaling (HEK-Blue assay)” value stood at 227 nM, the “IC50 of IL-1β signaling (HEK-Blue assay)” value was 51.6 nM and the “IC50 of IL-33 signaling (HEK-Blue assay)” value worked out at 254 nM. Moreover, the Kd in assay [4] worked out at 30.3 nM.

B4: h48D2 VH5:VL3 (antibody, human IgG1, kappa, L234A L235A, V domains shown)
VH: B2 VH
VL: DILLTQTPSVVSASVGDRVTITCQASESISTALAWYQQKPGQAPRLLIYKASTLPSGVPSRFRGSGSGTDFTLTITSLQPEDFATYYCQQGFSSGNVHNAFGGGTRLEIKR
notes: Humanized; also called VL3:VH5
On to B4, for which, in assay [1], the IC50 turned out to be 0.0288 µg/mL. For the same molecule, the IC50 in assay [2] was determined as 0.0249 µg/mL. In assay [3], the “IC50 of IL-1α signaling (HEK-Blue assay)” value came to 4.45 nM, the “IC50 of IL-33 signaling (HEK-Blue assay)” value was 2.72 nM, the “IC50 of IL-36α signaling (HEK-Blue assay)” value was found to be 0.0779 nM and the “IC50 of IL-36β signaling (HEK-Blue assay)” value is 17.4 nM. Moreover, the “IC50 of IL-36γ signaling” value in assay [3] was found to be 0.167 nM. The Kd in assay [4] came to 2.33 nM.

B5: h48D2 VH2:VL1 (antibody, human IgG1, kappa, L234A L235A, V domains shown)
VH: EVQLVESGGALVQPGGSLRLSCIVSGPSLSHFDITWFRQAPGKGLEWVATISPGVSTYYASWAKSRFTISTDTSKNTLFLQMDSLRAEDTAVYYCARGGVGSSWKAFDLWGPGTLVTVSS
VL: B2 VL
notes: Humanized; also called VL1:VH2
Turning to B5, the half-maximal inhibitory concentration (IC50) is 0.0279 µg/mL in assay [1] and 0.0238 µg/mL in assay [2]. In addition, the “IC50 of IL-1α signaling (HEK-Blue assay)” value in assay [3] is roughly 43800 nM. Moreover, the “IC50 of IL-1β signaling (HEK-Blue assay)” value in assay [3] came to 2.75 nM. In assay [4], the Kd came to 13.2 nM.

B6: h48D2 VH3:VL1 (antibody, human IgG1, kappa, L234A L235A, V domains shown)
VH: B3 VH with E5L, K13L, N83S, R112L, L115T
VL: B2 VL
notes: Humanized; also called VL1:VH3
Take B6: the results for the IC50 in assay [1] and in assay [2] were 0.0294 µg/mL and 0.0257 µg/mL, respectively. For the same molecule, the “IC50 of IL-1β signaling (HEK-Blue assay)” value in assay [3] came to 9.54 nM. Besides, in assay [3], the “IC50 of IL-33 signaling (HEK-Blue assay)” value was roughly 87500 nM. Further, in assay [4], the dissociation constant Kd stood at 28 nM.

B7: h48D2 VH3:VL4 (antibody, human IgG1, kappa, L234A L235A, V domains shown)
VH: B3 VH with E5L, K13L, N83S, R112L, L115T
VL: B2 VL with D1E, I2L, L11V, S76N, V108E
notes: Humanized; also called VL4:VH3
For B7, the IC50 in assay [1] worked out at 0.0303 µg/mL; in assay [2], 0.0263 µg/mL. For the same molecule, in assay [3], the “IC50 of IL-1β signaling (HEK-Blue assay)” value amounted to 22.3 nM. The Kd in assay [4] was 29.6 nM.

B8: h48D2 VH1:VL2 (antibody, human IgG1, kappa, L234A L235A, V domains shown)
VH: B3 VH
VL: B2 VL with D1Q, M4L, S9A, S10T, D70E, E81D, F83S, G103Q, V107L, V108E
notes: Humanized; also called VL2:VH1
Consider B8, for which the concentration for half-maximal inhibition (IC50) in assay [1] stood at 0.0198 µg/mL. Further, the half-inhibitory concentration (IC50) in assay [2] was 0.0182 µg/mL. In assay [3], the “IC50 of IL-1α signaling (HEK-Blue assay)” value is 242 nM and the “IC50 of IL-1β signaling (HEK-Blue assay)” value was found to be 37.6 nM. Moreover, the dissociation constant Kd in assay [4] amounted to 33.7 nM.

B9: h48D2 VH1:VL4 (antibody, human IgG1, kappa, L234A L235A, V domains shown)
VH: B3 VH
VL: B2 VL with D1E, I2L, L11V, S76N, V108E
notes: Humanized; also called VL4:VH1
Take B9: the IC50 in assay [1] came to 0.02 µg/mL. The 50% inhibitory concentration (IC50) in assay [2] stood at 0.019 µg/mL. For the same molecule, in assay [3], the “IC50 of IL-1α signaling (HEK-Blue assay)” value turned out to be 347 nM and the “IC50 of IL-1β signaling (HEK-Blue assay)” value was 14.6 nM. The Kd in assay [4] was 42.9 nM.

B10: h48D2 VH5:VL2 (antibody, human IgG1, kappa, L234A L235A, V domains shown)
VH: B2 VH
VL: B2 VL with D1Q, M4L, S9A, S10T, D70E, E81D, F83S, G103Q, V107L, V108E
notes: Humanized; also called VL2:VH5
With B10, in assay [1], the IC50 came out at 0.0218 µg/mL. Moreover, the half-inhibitory concentration (IC50) in assay [2] is 0.0231 µg/mL. Moreover, in assay [3], the “IC50 of IL-1α signaling (HEK-Blue assay)” value amounted to 3.77 nM, the “IC50 of IL-33 signaling (HEK-Blue assay)” value was 0.647 nM and the “IC50 of IL-36γ signaling” value turned out to be 0.253 nM. Also, the dissociation constant Kd in assay [4] worked out at 4.27 nM.

B11: h48D2 VH1:VL3 (antibody, human IgG1, kappa, L234A L235A, V domains shown)
VH: B3 VH
VL: B4 VL
notes: Humanized; also called VL3:VH1
As to B11, the IC50 in assay [1] came to 0.018 µg/mL. The IC50 in assay [2] amounted to 0.0201 µg/mL. Also, in assay [3], the “IC50 of IL-1α signaling (HEK-Blue assay)” value came to 231 nM, the “IC50 of IL-1β signaling (HEK-Blue assay)” value was determined as 17.2 nM and the “IC50 of IL-33 signaling (HEK-Blue assay)” value is 195 nM. For the same molecule, the Kd in assay [4] worked out at 35 nM.
